Measurements reported in patent US20190023745A1.

Columns and labels:
[1] = target: Zika virus MR766 envelope (E) protein, on virus particles (Zika virus strain MR766) (UniProt Q32ZE1); assay: cell-based or functional assay
[2] = target: Zika virus H/PF/2013 envelope (E) protein, on virus particles (Zika virus strain H/PF/2013); assay: cell-based or functional assay

Question: With EDE1 C10 monoclonal antibody as the substance, how does the EC50, neutralization in Vero cells [1] read?
Answer: 0.34 ng/mL

Question: What about the PRNT50 (plaque reduction neutralization test, BHK-21 cells) [2] of the same substance?
Answer: 0.024 µg/mL

Question: EDE1 C8 monoclonal antibody was tested. Which EC50, neutralization in Vero cells [1] did it give?
Answer: 0.89 ng/mL
